IntAct's records for PubMed 7664803

B1: Proto-oncogene tyrosine-protein kinase LCK (Mus musculus), P06240 (parent)
chain: MGCVCSSNPEDDWMENIDVCENCHYPIVPLDSKISLPIRNGSEVRDPLVTYEGSLPPASPLQDNLVIALHSYEPSHDGDLGFEKGEQLRILEQSGEWWKAQSLTTGQEGFIPFNFVAKANSLEPEPWFFKNLSRKDAERQLLAPGNTHGSFLIRESESTAGSFSLSVRDFDQNQGEVVKHYKIRNLDNGGFYISPRITFPGLHDLVRHYTNASDGLCTKLSRPCQTQKPQKPWWEDEWEVPRETLKLVERLGAGQFGEVWMGYYNGHTKVAVKSLKQGSMSPDAFLAEANLMKQLQHPRLVRLYAVVTQEPIYIITEYMENGSLVDFLKTPSGIKLNVNKLLDMAAQIAEGMAFIEEQNYIHRDLRAANILVSDTLSCKIADFGLARLIEDNEYTAREGAKFPIKWTAPEAINYGTFTIKSDVWSFGILLTEIVTHGRIPYPGMTNPEVIQNLERGYRMVRPDNCPEELYHLMMLCWKERPEDRPTFDYLRSVLDDFFTATEGQYQPQP

Experiments:
cd4_mouse Cd4, P06332 = variants of: B1; conditions: with cd4_mouse Cd4, P06332
Chain of cd4_mouse Cd4, P06332 (P06332 whole entry): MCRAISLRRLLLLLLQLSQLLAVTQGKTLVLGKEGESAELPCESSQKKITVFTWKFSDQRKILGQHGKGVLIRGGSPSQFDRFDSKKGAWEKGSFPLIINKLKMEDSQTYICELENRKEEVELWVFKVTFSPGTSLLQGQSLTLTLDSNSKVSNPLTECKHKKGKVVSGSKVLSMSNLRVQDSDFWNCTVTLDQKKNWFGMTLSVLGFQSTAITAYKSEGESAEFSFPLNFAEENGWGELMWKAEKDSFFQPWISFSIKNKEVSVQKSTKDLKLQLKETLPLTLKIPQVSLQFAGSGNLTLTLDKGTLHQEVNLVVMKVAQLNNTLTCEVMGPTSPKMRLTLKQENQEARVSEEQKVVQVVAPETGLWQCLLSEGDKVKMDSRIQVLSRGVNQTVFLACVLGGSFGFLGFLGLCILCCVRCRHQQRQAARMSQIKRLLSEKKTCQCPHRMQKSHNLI

cd8a_mouse Cd8a, P01731 = variants of: B1; conditions: with cd8a_mouse Cd8a
Chain of cd8a_mouse Cd8a, P01731 (P01731 whole entry): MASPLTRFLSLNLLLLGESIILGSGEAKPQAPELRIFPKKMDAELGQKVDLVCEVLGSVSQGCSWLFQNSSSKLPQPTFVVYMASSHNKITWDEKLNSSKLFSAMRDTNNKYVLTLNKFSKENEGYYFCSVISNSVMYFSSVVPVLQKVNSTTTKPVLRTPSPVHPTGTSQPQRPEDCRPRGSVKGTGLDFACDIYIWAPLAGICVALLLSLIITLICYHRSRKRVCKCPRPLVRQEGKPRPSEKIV

| effect of a mutation on the interaction (cd4_mouse Cd4, P06332) | effect of a mutation on the interaction (cd8a_mouse Cd8a, P01731) | Variant |
| --- | --- | --- |
| decreasing interaction | decreasing interaction | C23A |
| decreasing interaction | decreasing interaction | C20A |
